The target of this experiment is Purified native (non-tagged) D. radiodurans DR1245 protein (D. radiodurans). Kind of experiment: SEC; Sephacryl S-300 16/60 HR gel filtration column of purified native DR1245. On the technique in general: Size exclusion chromatography separates by hydrodynamic size, large species first.

The stoichiometry N is a count of units in the complex or per binding partner.

“Purified native (non-tagged) D. radiodurans DR1245 protein (natural protein)”: the stoichiometry N stood at 2.

These data come from paper PMC3575483.
